Experiment [1] addresses T1, FPRL2 (Homo sapiens, UniProt P25089).
T1 sequence (P25089 1-353): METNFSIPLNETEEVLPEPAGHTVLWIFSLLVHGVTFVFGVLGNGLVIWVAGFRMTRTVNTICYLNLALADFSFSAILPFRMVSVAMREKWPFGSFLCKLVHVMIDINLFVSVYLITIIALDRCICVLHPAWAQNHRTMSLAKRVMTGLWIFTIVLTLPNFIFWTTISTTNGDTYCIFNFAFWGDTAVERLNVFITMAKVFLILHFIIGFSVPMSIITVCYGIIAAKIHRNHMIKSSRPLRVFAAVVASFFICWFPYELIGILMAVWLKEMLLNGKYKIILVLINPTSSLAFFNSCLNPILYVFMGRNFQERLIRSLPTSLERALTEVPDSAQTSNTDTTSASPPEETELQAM
Kind of experiment: aequorin-based functional assay on FPRL2-expressing CHO-K1 cells. The settings on record: aequorin assay (FMLP, SHAAG: aequorin and cAMP assays).

In experiment [2] the target is T1, FPRL2. The settings on record: not depicted.

As to NSLFGSVETWPWQVL [F2L[7–21]], in the experiment with FPRL2 [1], the “activity on FPRL2” value was “totally inactive”. Moreover, the “activity in FPRL2 binding assay” value with FPRL2 [2] was “totally inactive”.

The record behind these values is paper PMC2212760 (The Journal of Experimental Medicine, 2005).
